# Measured values taken from US20130079246A1 (ADDEX PHARMA SA, priority 2010, published 2013).
# Key:
# [1] = molecular target: T1, chimeric TNFR1-PDGFR receptor (full length human TNFR1 fused to cytoplasmic domain of mouse PDGFR) (Homo sapiens, UniProt P19438); assay: Ca2+-dependent aequorin luminescence in HEK293T Aequorin cells expressing the chimeric receptor (HTS setting); assay type: cell-based
# T1 construct: 1, 2; full length; cytoplasmic domain (cp); expressed in transfected cells; host or cells: HEK293T cells stably expressing apoaequorin
# T1 sequence (P19438 with tags, fused parts or gaps): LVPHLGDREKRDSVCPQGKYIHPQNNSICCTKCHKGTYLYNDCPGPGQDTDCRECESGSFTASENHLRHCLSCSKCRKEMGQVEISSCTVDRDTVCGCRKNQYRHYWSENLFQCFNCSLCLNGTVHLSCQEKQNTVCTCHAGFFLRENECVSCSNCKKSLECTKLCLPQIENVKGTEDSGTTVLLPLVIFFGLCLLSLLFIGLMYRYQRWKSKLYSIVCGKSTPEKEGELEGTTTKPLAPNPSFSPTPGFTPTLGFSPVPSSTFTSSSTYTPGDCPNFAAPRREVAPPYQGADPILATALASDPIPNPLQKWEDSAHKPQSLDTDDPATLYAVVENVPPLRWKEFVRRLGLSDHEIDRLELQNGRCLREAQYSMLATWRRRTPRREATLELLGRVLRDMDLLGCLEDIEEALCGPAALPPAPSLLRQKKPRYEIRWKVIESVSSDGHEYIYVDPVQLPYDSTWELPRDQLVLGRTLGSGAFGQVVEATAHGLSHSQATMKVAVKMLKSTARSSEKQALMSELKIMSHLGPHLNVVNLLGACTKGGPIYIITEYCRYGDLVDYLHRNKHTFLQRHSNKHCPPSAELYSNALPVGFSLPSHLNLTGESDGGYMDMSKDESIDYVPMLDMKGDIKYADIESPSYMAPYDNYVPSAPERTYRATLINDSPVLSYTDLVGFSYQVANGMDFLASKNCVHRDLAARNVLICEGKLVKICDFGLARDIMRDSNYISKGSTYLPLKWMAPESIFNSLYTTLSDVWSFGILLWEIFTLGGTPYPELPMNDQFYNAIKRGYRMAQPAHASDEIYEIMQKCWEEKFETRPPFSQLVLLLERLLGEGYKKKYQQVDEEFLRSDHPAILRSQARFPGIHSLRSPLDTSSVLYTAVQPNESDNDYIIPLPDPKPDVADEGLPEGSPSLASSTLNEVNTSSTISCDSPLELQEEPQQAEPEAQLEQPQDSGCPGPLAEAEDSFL
# Text: HEK293T stably expressing Apoaequorin were generated using standard cloning techniques. The HEK293T cells expressing Apoaequorin (“Aequorin cells”) were then further transfected as described in Examples 1-3 so as to express the chimeric receptors 1-3 as listed in Table 3.
# In particular, the HEK293T Apoaequorin cells were transfected with pcDNA3.1 hygro TNFR1-fl-PDGFR-cd vector as prepared in Example 1 using Optifect™ Transfection Reagent (Invitrogen), according to the manufacturer's protocol.
# HEK293T cells expressing Apoaequorin and the chimeric receptor (Example 4) were plated in 384-well plates at a concentration of 12500 cells per well in a final volume of 50 μl. […] A FDSS7000 reader from Hamamatsu (Japan) was used to examine intracellular calcium levels. […] The instrument features include detection with a camera of fluorescence or luminescence and automatically converts fluorescence or luminescence signals into numeric data. This digital data is then used to determine the concentration of calcium inside the analyzed cells. The information is automatically analyzed in terms of a positive, negative or null effect of each test compound being examined. This system allowed differences between untreated and treated cells to be measured, for example by measuring the calcium flux in cells. […]
# [2] = molecular target: chimeric receptor: full length human TNFR1 fused to the cytoplasmic tyrosine kinase domain of mouse PDGFR (human TNFR1; mouse PDGFR); assay: cell-based or functional assay
# Sequence of chimeric receptor: full length human TNFR1 fused to the cytoplasmic tyrosine kinase domain of mouse PDGFR (human TNFR1; mouse PDGFR) (chain, as listed by the source mutant limits assumed): as the sequence (P19438 with tags, fused parts or gaps) above
# Sequence of TNF (ligand) (P01375 77-233): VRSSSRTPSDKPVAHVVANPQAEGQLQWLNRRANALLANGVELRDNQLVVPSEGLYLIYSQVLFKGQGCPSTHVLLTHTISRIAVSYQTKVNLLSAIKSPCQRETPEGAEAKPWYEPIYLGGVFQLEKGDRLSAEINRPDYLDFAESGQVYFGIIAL
"Inhibitory efficacy, dose response compared with cells expressing full-length PDGFR ([1]; inhibitor 3 μM to 0.45 nM, cells exposed to TNF, FIG. 6)","EC50, Ca2+-dependent aequorin luminescence, AUC over 10 minutes [2]","EC50, Ca2+-dependent aequorin luminescence, Max-Min [2]","EC80, Ca2+-dependent aequorin luminescence, AUC over 10 minutes [2]","EC80, Ca2+-dependent aequorin luminescence, Max-Min [2]",Compound,"Effect on TNF-dependent intracellular calcium increase ([1]; 1 μM inhibitor, 3 ng/ml TNF, FIG. 5b)"
equal inhibitory efficacy,–,–,–,–,"COc1cc2ncnc(N3CCN(C(=O)Nc4ccc(Oc5ccccc5)cc4)CC3)c2cc1OC [PDGFR Tyrosine Kinase Inhibitor III, 4-(6,7-Dimethoxy-4-quinazolinyl)-N-(4-phenoxyphenyl)-1-piperazinecarboxamide]",prevented the detection of intracellular calcium increase
–,1.27 ng/mL,1.06 ng/mL,2.9 ng/mL,3 ng/mL,TNF (ligand),–
